Assay results: the DeepSol protein solubility set

assay: soluble on expression in E. coli; label from the status in PepcDB or PDB records

Row | Sequence | soluble on expression in E. coli
1 | MSYQNLVSEAGLTQKLLIHGDKELFQHELKTIFARNWLFLTHDSLIPSPGDYVKAKMGVDEVIVSRQNDGSVRAFLNVCRHRGKTLVHAEAGNAKGFVCGYHGWGYGSNGELQSVPFEKELYGDAIKKKCLGLKEVPRIESFHGFIYGCFDAEAPPLIDYLGDAAWYLEPTFKYSGGLELVGPPGKVVVKANWKSFAENFVGDGYHVGWTHAAALRAGQSVFSSIAGNAKLPPEGAGLQMTSKYGSGMGVFWGYYSGNFSADMIPDLMAFGAAKQEKLAKEIGDVRARIYRSFLNGTIFPNNSFLTGSAAFRVWNPIDENTTEVWTYAFVEKDMPEDLKRRVADAVQRSIGPAGFWESDDNENMETMSQNGKKYQSSNIDQIASLGFGKDVYGDECYPGVVGKSAIGETSYRGFYRAYQAHISSSNWAEFENASRNWHIEHTKTTDR | soluble
2 | MGSDKIHHHHHHLEEILKLKASDTASLEARGEANKKYGIQDFDTWVKRILSRINCSSVLDVCCGTGNQLTYYIQMPCTTNILGVDISKDSLKIARQRCEYLLSTNKKLTLKCCKMEEMFDDKEIDRQYDLISCFYGLYYAEDVDVIVERMIDHLNHKGVFLIVGPYGKNNASLFEIIQKHCMIPELVIKSSTTFMQEDLILKLVTLPGISVDTETFVNPILYPSPQAVMDYWQASTFYVPQYHSTIQQELEKRFENHDVFVVEKHIMAIIASKL | not soluble
3 | GPGSMSKSRRDVNKVQIGYHRAENTETVSSPHTYAYSSGKSAPSTTKPDRPTVSNIRIASAVAGLPPSRFAANASVKREKNDEESESPTAAASSVSSSLLHGAASEARTTVDGFPWSTRRVERMSFEMQNVSPPIANLLRRVLTTEVPTLAFDRVLIEENDSPVLDELLSHRLGLVPVAGPVMKMHYITESNQASFSNLDPSRVLLFELDATGAKDAAVTPVYSGQLQWVPLPGQDKTAGAVAVACQAGREECAGAAGATDHSADEDDDAVFLVHPDILLTKLGPGQRIKLKAIAVKGFGAVHAKWSPVSACYYEMKTSVELCERLTGSAAEALIKSCPAGVFGYEGGQRGAAATVVAPEKCTLCRECLRSEDKGAEAAANKGDRVRVQKDKTHVLFHIESVGQLHPAQILRFGLRLFAERCRALAEMVQSTEVHVVDASAKSLEL | not soluble
4 | MPDKKREVSLSHRLQEVASFVPKGARLLDVGSDHAYLPIYLLEQGLIDFAVAGEIIKGPYESAVANVSESELSGQIAVRLADGLAALNDNDDIDLITICGMGGRLIADILAAGSDKLNSVKQLILQPNNCEDDLRSWLVANDFMIKAEKMVKDRHKYYEILVVEKGKITLSDKDLRFGPFLRQERSSIFKERWRKELAKLELALTKVPAKKKADNMFLSTKIEQIKEVLYES | not soluble
5 | SPSPWGWFAVTACGAQRNNFEEPVALQEMDTSNGVLLPFYDPDSSIVYLCGKGDSSIRYFEITDEPPFVHYLNTFSSKEPQRGMGFMPKRGLDVSKCEIARFYKLHERKCEPIIMTVPRKSDLFQDDLYPDTPGPEPALEADEWLSGQDAEPVLISLRDGYVPPKHRELRVTKRNILDVRPPSGPRRSQSASDAPLSQHTLETLLEEIKALRERVQAQEQRITALENMLCELVDGTD | soluble
6 | PLTSTVNGYRNVGYFAQWGVYGRAFQAKQLDVSGTAKNLTHINYSFGNINNQTLTCFMANKAQGTGPNGSDGAGDAWADFGMGYAADKSVSGKADTWDQPLAGSFNQLKQLKAKNPKLKVMISLGGWTWSKNFSKAAATEASRQKLVSSCIDLYIKGNLPNFEGRGGAGAAAGIFDGIDIDWEWPGTNSGLAGNGVDTVNDRANFKALLAEFRKQLDAYGSTNNKKYVLSAFLPANPADIDAGGWDDPANFKSLDFGSIQGYDLHGAWNPTLTGHQANLYDDPADPRAPSKKFSADKAVKKYLAAGIDPKQLGLGLAAYGRGWTGAKNVSPWGPATDGAPGTYETANEDYDKLKTLGTDHYDAATGSAWRYDGTQWWSYDNIATTKQKTDYIVSKGLGGGMWWELSGDRNGELVGAMSDKFRAAAPGPVTEAAPP | soluble
7 | MGSDKIHHHHHHMHRLPPLRAIQVFDSVARNQSFSIAASQLAITQGAVSKQVKLLEEFYAEKLFIRCGTNIELTKKGTWLAYQLTPIFDQLNGICNFNSISRGKIRIATYPSLSLGYLTYEIEQFNSAHPNIDVEIILAINHPTMCDEIADLFITTEESIDGYHYQQLFQERLIPVISPKIINDTTIIKIKDLTGYTLLVTNGKENSDWQLWFNHHNLKPAIYQKMNMFSDALLSTRAAELGNGIALSCEVTAHRDIIDGRLCKVGLPSAPTGRRYFLCCKNRRRYEPNIKLLSDWINKKFIND | not soluble
8 | MAHHHHHHMEEQESAENINMIKETIFGLPNSVILKIIHNNINLKNYKIRKEAVTTLGRCLSMFILYITDGALEHCEGEKRNTIFVRDILNSLDDSLFLDIYDELKRQIAIQEEIHKKESAKEAKSAAKGDTPSGADNAQGETNQVNKQDDLDILLQALE | soluble
9 | MNQIDLNVTCRYAGVFHVEKNGRYSISRTEAADLCQAFNSTLPTMDQMKLALSKGFETCRYGFIEGNVVIPRIHPNAICAANHTGVYILVTSNTSHYDTYCFNASAPPEEDCTSVTDLPNSFDGPVTITIVNRDGTRYSKKGEYRTHQEDIDAS | soluble
10 | MILFDFKDLSAATSWYGVNDTVMGGLSRSKLTISPLGYGIFSGHVSLANGGGFASVRCEFEHVNVAEFTGIYLDLDSDRSKQYKVNLKDADTPQSTVYQAIMPAPTHQTFGLSGASAIHWQRIEIPFTNFHPQCRGKPIAGAAIDLRRLTSIGLVIGAQQSGDFALKIKSIGCYLEHHHHHH | soluble
11 | MLSGREMSMSHINYNHLYYFWHVYKEGSVVGAAEALYLTPQTITGQIRALEERLQGKLFKRKGRGLEPSELGELVYRYADKMFTLSQEMLDIVNYRKESNLLFDVGVADALSKRLVSSVLDAAVVEDEQIHLRCFESTHEMLLEQLSQHKLDMIISDCPIDSTQQEGLFSMKIGECGVSFWCTNPLPEKPFPACLEERRLLIPGRRSMLGRKLLNWFNSQGLNVEILGEFDDAALMKAFGATHNAIFVAPSLYANDFYNDDSVVEIGRVENVMEEYHAIFAERMIQHPAVQRICNTDYSALFTPASK | not soluble
12 | MGSDKIHHHHHHMQDLNDLSLFAQVVEHGSFSAASRATGIPKSRLSRRIAQLERDLGVQLLRRTTRQVRVTPLGESYYERCRAMLKEAEAAHEVIEQARDQPGGTLRVSCPVAIAQILLAPAIGHFMRANPAVRIELEATNRRVDVIGEGYDLSLRVRDVLEDSSLAVRTFGESQLMLVASPGLLDSIGRPRTPQALDGMPGVGQKPHDGKHVWVLGCKSGETIQIAYDPRLVTDEFSLLREAAIAGIGVAMLPRMYCRDAIDAGELELLLPQWEMPVGTLHAVFPSRKGVTPAVRRFLDFLSEILPENARKVGMHEPRQPAMHRAV | not soluble
13 | MSELTIGLILPDVLGTYGDDGNALVLRQRARLRGISAEIHTVRLGEAVPEGLDLYCLGGGEDTAQILAAEHLNNDRGLRRAADSGRPILGICAGLQVLGRSFRASGKIVEGVGLIDATTASLAKRTIGELQSTPTAAGFTAELTEPLTGFENHMGATILGPDAQPLGAVTRGVGNTDLHGITTASVSDEQVSYEGAVQGNVVCTYMHGPALARNPQLADLLLAKAMGIALADLAPLDLPVVDQLRKERLA | not soluble
14 | MGSSHHHHHHMAYTNTPHNWGIPRPKNETVPDAGKLYTDLLQKNGGFYLGDTKKKDIYLTFDNGYENGYTGKILDVLKEKKVPATFFVTGHYIKTQKDLLLRMKDEGHIIGNHSWSHPDFTAVNDEKLREELTSVTEEIKKVTGQKEVKYVRPPRGVFSERTLALTKEMGYYNVFWSLAFLDWKVDEQRGWQYAHNNVMTMIHPGSILLLHAISKDNAEALAKIIDDLREKGYHFKSLDDLVKSNQP | soluble
15 | MSLGEPAQPGAKKYVLFDVDGTLIDAVDNQRRVWRVWAERYGLDPGEVYQVALRTRPMETFAQVAPDRDPQECLAALHELEDEDVRSGVYAAFDGASELLDALPPESWALVTSNYEHRVRGRFARTGLPVPSIIVDAASVEEGKPSPVPYLLAAKRLGADPQDCLVIEDAPSGVRSALRAGMTVWGVNAPVAVDGVHRHFGSLREAIRDILAVTSGTRPHEPRGSAAVEGHHHHHH | soluble
16 | MGSDKIHHHHHHLISTANITMQFGPEPLFENISAKFGNGNRYGLIGANGCGKSTFMKILSGALAPTSGNVSITPGLKVGTLSQDQFAFEQYTVIDAVIMGDVQLWKVKQERDAIYAKADMTEEDGMRVGDLESEFAEMDGYSAESRAGEILIEAGIEESFHYGPMSQVAPGWKLRVLLAQALFANPDILLLDEPTNNLDIHTISWLETELNKRKCTMIIISHDRHFLNAVCTHMADIDYGELRIYPGNYEYFLAQSSLLREQLLAGNAKKSAEIEELQDFVNRFGANASKAKQASSRAKRMDKIKLDEVKSSSRITPSIRFAAGKKMHRQALVLENLGHGFDGELLFQGGDLILEAGAKLAIIGENGVGKTTLLRCLVNELIHNEGTIKWSENASIGYCPQDSTSDFDNDLTIMEWMDQWRQPKHNDLMVRAMLGRLLFTEDDANKKAKNCSGGEKNRLIFGKLMMQDINVIIMDEPTNHMDMEAIEALNNALKDFEGTLIFVSHDREFVSSLATRIIDIKDKKLINFQGTFDEYLSSQADIMARQHA | not soluble
17 | MMKVYRLYLRDEYLEMVKSGKKRIEVRVAYPQLKGMKRGDKIIFNDEVPAEVIEVKHYETFRQVLREEPIDKIFPDEPSFERALRRFHNLYPKWKENRYGVIAIKFKLLGRERK | soluble
18 | VVQPADIDVPETPARPVLVVDFGAQYAQLIARRVREARVFSEVIPHTASIEEIRARQPVALVLSGGPASVYADGAPKLDPALLDLGVPVLGICYGFQAMAQALGGIVAHTGTREYGRTELKVLGGKLHSDLPEVQPVWMSHGDAVTAAPDGFDVVASSAGAPVAAFEAFDRRLAGVQYHPEVMHTPHGQQVLSRFLHDFAGLGAQWTPANIANALIEQVRTQIGDGHAICGLSGGVDSAVAAALVQRAIGDRLTCVFVDHGLLRAGERAQVQRDFVAATGANLVTVDAAETFLEALSGVSAPEGKRKIIGRQFIRAFEGAVRDVLDGKTAEFLVQGTLYPDVVESGGGSGTANIKSHHNVGGLPDDLKFTLVEPLRLLFKDEVRAVGRELGLPEEIVARQPFPGPGLGIRIVGEVTAKRLDTLRHADSIVREELTAAGLDNQIWQCPVVLLADVRSVGVQGDGRTYGHPIVLRPVSSEDAMTADWTRVPYEVLERISTRITNEVAEVNRVVLDITSKPPATIEWE | not soluble
19 | MKVGIVLGTKPSNPLEFWVGVEKGKFLQLDDVVVVNSKIDGTNEEIKFYGIVQEVIKYLEGVELVYDAQLVNSGVVPANLAYMARVSVTRIEPEVFIPPTPGDYVFKAEGIDFEKALYYDNMKRKIPAGLTRNGEVVYLNYDFINGREGAHISISGMSGVATKTSYALFLLYSIFQKADDRTKIHGIIFNVKGKDLLWIDKKNKRFTKEHREAFEKLGLPPEPFKNVAFWAPPEQEWSEIPSSGERLEGVFPYKWSMKDFAQEGLLRFLFAEGDEGATSLHYVIDRVSEKLQQLAKESPGDVLLDENGQEINSLGDLLKLLHEVIEDRETKRDPDRYREWFGTAATATAYAFLRRFHHAASHCKHLVHGNKSRHIDWRSHQLNVIDISDLHGIAKMFVVGSILKKIFREKEETGNPYPKIFVVLDELNKYAPKDKWSPIKEILLDIAERGRSLGVILIGAQQTASEIEKRIVANAAVKVTGRLDSSEVLSKEYEFLTGNFRQRAIMLKKGTMILYQPDIPNPVMIKFPLAPWATKKEEVEEEVSAPKEFDQF | soluble
20 | MTMDKSELVQKAKLAEQAERYDDMAAAMKAVTEQGHELSNEERNLLSVAYKNVVGARRSSWRVISSIEQKTERNEKKQQMGKEYREKIEAELQDICNDVLELLDKYLIPNATQPESKVFYLKMKGDYFRYLSEVASGDNKQTTVSNSQQAYQEAFEISKKEMQPTHPIRLGLALNFSVFYYEILNSPEKACSLAKTAFDEAIAELDTLNEESYKDSTLIMQLLRDNLTLWTSENQGDEGENLYFQ | soluble
